Measured values reported in the DeepSol protein solubility set.

Assay: soluble on expression in E. coli; label from the status in PepcDB or PDB records

Sequence	soluble on expression in E. coli
MGSDKIHHHHHHMFLAGAFIAVGSLYAQSSDAEWQAGVAKLKETIQTNPAQANEEAEQLIKGKNKKNVELLVAIGEVYLKAGKLPEAQEYAALAKKVNGKSALASVLEGDIAFEQKNAGLASQKYEEAIYFDPSCTEAYLRYADIYKSANAALAIEKLEQLKAQEPSNTAVDKKLAEIYYLKNDFSKAAEAYSRFAMGPTATEEDLVKYAFALFLNHDFEKSLEVANMGLKKNARHAAFNRLAMYNYTDLKRFDEAIKAADAFFTESDKADYSYLDYMYYGHLLEALKKYDEAVGQYEKAIQLDPTKTDLYKNISSAYEQKNDYKKAISAYQKYYTSLDKEHQTPDLQFQFGRLYYGAGTQTDSLTINAEERKQALMAADSVFHSIAEAAPDSYLGNFWRARANSALDPETTLGLAKPFYEEVATLLESKNDPHYNSALIECYSYLGYYYLLAIENPALKAEAMANKEKSKEYWSKILAIDSTNATAKRALDGIK	not soluble
MGSDKIHHHHHHMFLTKVSLLDHPESLPGYLSSLAIVEYLHEQPLEFRAPITVITGENGVGKSTLVEALAVGMRLNPSGGSRHANFGREGDIVSSLHQSLKLVRRENPRDAFFFRGETMYNVASYYEELMGEKNMHDLHKMSHGESVFAVIDRRFNNQGFFVLDEPEAGLSMLRQLELLGKLGNLARGGAQIIMATHSPILLAIPGAEILEITSSGVAKVNFEDAEAVRAAREFVADPRGTAAFLTAEEDHQ	not soluble
MGSDKIHHHHHHMFLVCGEALFDIFTRADDGGSLNRLGFDAIAGGSPFNVAIGLRRLGVEAAFFAGLSTDYLGRRLRAVLEQETVNAEHLIEFDAPTTLAMVAVGSDGSPTYSFRGDGCADRQLRLEHLPELDERVRGIHVGSFSLVVQPIADTLLALVARESARRLISLDPNVRLNPAPDIQRWRTQIAAFAEHAHLIKVSDEDLHLLYPDSDPQQIAEGWLGKRTQLVIVTRGTQGASVFTRQHGTWSVPAKTVVTADTVGAGDTFQAALLTFLSERQLDTPQGLSTLSRETLDEMLNFAVGAAALTCTKVGPDLPYRHQLG	not soluble
MGSDKIHHHHHHMFPPDKTLFLCLSALLLASCGTTSGKHRQPKPKQTVRQIQAVRISHIDRTQGSQELMLHSLGLIGTPYKWGGSSTATGFDCSGMIQFVYKNALNVKLPRTARDMAAASRKIPDSRLKAGDLVFFNTGGAHRYSHVGLYIGNGEFIHAPSSGKTIKTEKLSTPFYAKNYLGAHTFFTE	not soluble
MGSDKIHHHHHHMFQWKKLGKVFTPQDINNRPWLKEFAQAPATLVFDDFVRVYFSCRPPVDEHGMYVSYSAWVDLDRNNLFNVLRVSEKPILPLGQSGEFDEFGTYPVSVVRDENIFRAYYAGWTRCESVPFNVAIGMAISDDGDVFRKAGPGPIISYSPEEPFVMSGPKIRRFNGEWQLFYIAGRRWKLVDGRAEPVYKIRMAVSSDGTNWRKINKDLISSRIEEDEAQASPDVFYANGRYHMFFCYRYSEHYRGKKHGYRIGYAWSSDLIDWHRDDEKVGIDVSETGWDSEMISYPHVFELDGKVYMAYLGDQVGRYGFGLAQLEGELR	not soluble
MGSDKIHHHHHHMFREDRKGLIVVEVENQDLIKTIQVKFPRLSKGQKLIAEYILKHYDKAAFLTAAKLGSSVGVSESTVVRFANELGFSGYPKLQKALQELIKNKLTTVQRIELSNDFIDQESTLKSVLKSDMENIRYTLEKINHKTFDDVVDSIFSAKRIYILGLRSSTPIAEFLGFYLNLILDNAKIISYGVSDIFEQMMNVAKGDLVIGIGFPRYAARTIEALDYAQNNEATVVAITDSLLSPLAARANHTLIAQSNMASFVDSLVAPLSVVNALIIAVGLREKDKISSTFSKLEHIWQEYEVYSYKERRRD	not soluble
MGSDKIHHHHHHMFSLEQLEAFMETVESGSFSNAARQLKKAQSVVSQHVMNLEIDCGVELFDRSGRYPVLTAEGSKLLPYARATILQHRRLKHTALSLFSRQSSEVCLAMDEGIPIQRISEIIQLLESDFPNIELEFLSASSIDIIDMVHSGRASTGLIFSELSMPSSIDFESIGVIEFDLYVASSHPLAKSVAPNMDSLRLYRQLCIRSRNTKTSSFQQVFSPDVWYADNYYVLLELALQGHGWCLLPEHMASSSVSSGNLTRVPIEFEQIGWYANVDVIQHQDKSSLPLLKRLRQLFRELLVGQK	not soluble
MGSDKIHHHHHHMFSPTKLKEKRESQGLSQSQLASSLGISRVSYFNWESGKTKPNQNNLSKLSQILTVDPCYFESEYEIVETYLKLTEKNQKATLHYATELLNKQNEKVVDIPERFAYKVYEKLSAGTGTAYFDDGNYDTVYFNHQFDYDFASWVFGNSMEPTYENGSVALIKQTGFDYDGAIYAIDWDGQTYIKKVYREENGLRLVSLNRNYSDKFAPYDENPRIIGKIVGNFMPLED	not soluble
MGSDKIHHHHHHMGAARRLPSALFLLGCRTRTRGEHAHMGKIRTGIGGWTFEPWRGTFYPDDLKQKDELKYAASKLTSIEINGTYYSTFKPNSWMKWRDETPDDFVFSVKASRFCTNRRVLSENNDSLEKFLSQGLEELGPKLGPINWQFMATKKFDPADFEGFLKLLPSEQKGVRLRHAMEVRSPTFACQQFYDLCAQYGVAIVYAVDDEAPEWPRIDQPTADFTYARLMCSREDEPTGMTSEELDGVVAQTHKWAERGDVFAYFIAGAKVRNPAAAMALIGKLGG	not soluble
MGSDKIHHHHHHMGDNLILSFRPDLQIKEEAGKIYLQSPVRSLVCQRVSRGLRQLMKTLTTGSGSEDFLSEPVFKEDGAGEVAKFYYHLQQFIERGFISYNVMMEQEILAIYTPFSAAPLYNEKLFKQKQRYRLSRFTYSRRDGQEIILESPLANGRVVLTHWLAAAVLHLLAEACTAGEISMQFPALPKKSLQLFLELLLSAGMLEEVDDAGISAGEGDEVLQQWEFHDLLFHARSRLGPHEQPVGGTYRFWGRIAPLPAVKNPMSGERIKLYRPDMEKLREDDYPFSLVLEERKSIRDYADEPISVQQLGEFLYRSARIKELIKANPPAGLLYEASYRPYPGGGAAYELEIYLAVNECEGLPGGLYHYDPWQHELEKLTTRTSEVEGLLKYCSNAAGLKELPPVSLHITARFQRVAWKYQSLTYSVILKDVGALCQTLYLVATAMDLAPTAIGSGPAKLLCRIAGLNYLQESAVGEFILGNKRI	not soluble
MGSDKIHHHHHHMGFYEEMIRRIAADADPAACVEEIRIYANWVLVKTGKWSISTYFHGMPGFTDPAGMGTWMGDWIGRPARAAALELLVSREILKRSVGMACLKSLLPDPPATIAGGAIELVEPAACRIPTCFIGYFKTAAAWREKGYPVTIVELFPRPGDIHWNEADEVLEKAELVLMTGLTVVNETLEAVIRRTPSARMRIIMGPTVPASPVLFDYGIDMLGITQIDDVELMSNYALLGGGSIANAPAGALRSLNMARDLRALQERISALAR	not soluble
MGSDKIHHHHHHMGGIYRLSLKSTEATAERLSCDTRCNYEDRDLAYSPDGRWLAIARRFSNISEDIFIRDLASAHEKRLTQGLEDIRGLSWTPDSQALVFATEDSGSSNGFTLDINTAQIRSLDVEGMSYPSSVSAEGELVYHQYHRQFQMAYFSLGDKVPGSLFPLLYSGVSHRNPDYSPEAKRIVFVSSETGYNEIWTSDINGQKLEQLTQLKSRVAYPRWSPDGSRIAFIAPDDRNEGNRIFILDLTNKNITALASSYHNHGRPSWNWQGTAVLASTADGITEFYLDNRAPRVISSLSMAVGFAKSATELVFSRDGENGLWQINLTQPEHVEQLISTDAFRAGNNWVLTASGVYFKSSNGHEQLLNYWEASSQQVTSLLRVPRSSLSGFGSMTYIPEANRLVMTLDGFPQRDIILLKHKLLK	not soluble
MGSDKIHHHHHHMGHSLNAKYGLKRVINASGRMSILGVSAPTDTVMDAMKHGGQNYVEIADLVDKAGDHIARILDSEAAVVVNSASSGIALSIAAIVTEGNRRKSERLHQEVIAKNEVIMLKGHNVQYGAPVETMIYLGGGKLVEVGYANEGKAEHIEDAIGENTAAILYVKSHHAVQKNMISVEEAWEVAQRNNIPLIVDAAAEEDIQKYVKYADLAIYSGSKAIEGPTSGIVGGKRKYIEWLKVQLHCIGRSMKVGKETTFGLLQALDEYGVKEDKSEQEKELLQVLMPLKELNGVNVTIVQDEAGRAIFRARIHIDENELNKSAKDVVTALREGEIAIYTRDYGVRQGFFDIDPRPLLGDDIHVIEEKLREIVGGN	not soluble
